Where a chain is given by its changes, count along the chain named.
T1: C5aR expressed on purified cynomolgus neutrophils (cynomolgus monkey (Macaca fascicularis))
T1 construct: Endogenous receptor on neutrophils from whole blood of three animals; also called cynomolgus C5aR expressed endogenously
T1 chain: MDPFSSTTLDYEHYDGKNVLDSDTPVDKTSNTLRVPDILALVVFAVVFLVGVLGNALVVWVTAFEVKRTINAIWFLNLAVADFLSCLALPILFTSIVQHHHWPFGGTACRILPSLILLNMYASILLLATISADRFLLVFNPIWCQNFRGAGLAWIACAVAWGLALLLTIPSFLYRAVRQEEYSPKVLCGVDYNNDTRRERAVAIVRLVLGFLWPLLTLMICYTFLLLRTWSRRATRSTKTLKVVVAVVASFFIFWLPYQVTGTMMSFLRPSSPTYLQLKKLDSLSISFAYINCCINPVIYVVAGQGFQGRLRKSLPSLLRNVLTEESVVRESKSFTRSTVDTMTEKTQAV

T2: full-length human C3aR expressed on CHO Flp-In cells (human, UniProt Q16581 1-482)
T2 construct: also called C3a anaphylatoxin chemotactic receptor
T2 sequence: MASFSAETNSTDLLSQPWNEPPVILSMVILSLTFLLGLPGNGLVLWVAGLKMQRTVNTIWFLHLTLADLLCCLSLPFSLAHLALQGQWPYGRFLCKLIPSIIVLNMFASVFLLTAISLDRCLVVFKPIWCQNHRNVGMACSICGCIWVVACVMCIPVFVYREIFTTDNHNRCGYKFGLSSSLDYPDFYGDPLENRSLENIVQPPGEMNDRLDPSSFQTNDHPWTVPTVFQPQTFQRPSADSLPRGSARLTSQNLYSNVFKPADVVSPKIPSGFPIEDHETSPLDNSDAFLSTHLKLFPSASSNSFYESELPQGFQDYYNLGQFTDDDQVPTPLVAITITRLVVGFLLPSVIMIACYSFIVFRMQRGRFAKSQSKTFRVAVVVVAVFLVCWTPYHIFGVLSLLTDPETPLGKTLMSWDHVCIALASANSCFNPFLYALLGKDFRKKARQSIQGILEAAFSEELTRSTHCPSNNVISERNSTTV

T3: Human FcγRIIB (1-202)-HIS6 (human, UniProt P31994 43-217)
T3 construct: Extracellular region with C-terminal 6xHis tag; UniProt P31994 printed
T3 sequence: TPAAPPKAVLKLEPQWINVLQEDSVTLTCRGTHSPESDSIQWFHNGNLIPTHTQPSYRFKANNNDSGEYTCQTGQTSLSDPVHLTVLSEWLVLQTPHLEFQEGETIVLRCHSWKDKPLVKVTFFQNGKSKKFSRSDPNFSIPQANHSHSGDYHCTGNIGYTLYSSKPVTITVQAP

T4: Human FcγRIIa (1-209)-(131H)-HIS6 (human, UniProt P12318 34-209)
T4 construct: Extracellular region with C-terminal 6xHis tag; UniProt P12318 printed
T4 sequence: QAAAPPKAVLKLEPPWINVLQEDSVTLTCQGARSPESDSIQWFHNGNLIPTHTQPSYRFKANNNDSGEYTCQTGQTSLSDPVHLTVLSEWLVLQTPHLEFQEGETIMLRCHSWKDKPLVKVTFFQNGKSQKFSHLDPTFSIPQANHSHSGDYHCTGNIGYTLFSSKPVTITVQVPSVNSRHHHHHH

T5: Human FcγRIIa (1-209)-(131R)-HIS6 (human, UniProt P12318 34-209)
T5 construct: Extracellular region with C-terminal 6xHis tag; UniProt P12318 printed
T5 chain: T4 sequence with H134R

T6: full length mouse C5aR stably expressed on CHO Flp-In cells (mouse (Mus musculus), UniProt P30993 1-351)
T6 sequence: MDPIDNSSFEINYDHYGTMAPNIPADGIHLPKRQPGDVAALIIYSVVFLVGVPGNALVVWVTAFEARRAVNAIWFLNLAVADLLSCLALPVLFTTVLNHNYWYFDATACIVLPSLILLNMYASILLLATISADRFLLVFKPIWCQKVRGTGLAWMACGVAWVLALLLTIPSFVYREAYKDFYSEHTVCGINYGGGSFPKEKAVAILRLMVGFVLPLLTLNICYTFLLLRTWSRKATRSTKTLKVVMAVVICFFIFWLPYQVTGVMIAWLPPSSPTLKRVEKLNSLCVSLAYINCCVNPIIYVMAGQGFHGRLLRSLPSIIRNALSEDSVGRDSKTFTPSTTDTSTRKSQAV

B1: MAB #2 (antibody, human IgG1, lambda)
heavy: EVQLVESGGGLVKPGGSLRLSCAASGFTFSSYAMHWVRQAPGKGLEWVGRIKSVAQGGTTDYAAHVKGRFTISRDDSKNTLYLQMNSLKTEDTAVYYCARVSHSTFDVWGQGTLVTVSSASTKGPSVFPLAPSSKSTSGGTAALGCLVKDYFPEPVTVSWNSGALTSGVHTFPAVLQSSGLYSLSSVVTVPSSSLGTQTYICNVNHKPSNTKVDKRVEPKSCDKTHTCPPCPAPEAEGAPSVFLFPPKPKDTLMISRTPEVTCVVVDVSHEDPEVKFNWYVDGVEVHNAKTKPREEQYNSTYRVVSVLTVLHQDWLNGKEYKCKVSNKALPSSIEKTISKAKGQPREPQVYTLPPSREEMTKNQVSLTCLVKGFYPSDIAVEWESNGQPENNYKTTPPVLDSDGSFFLYSKLTVDKSRWQQGNVFSCSVMHEALHNHYTQKSLSLSPGK
light: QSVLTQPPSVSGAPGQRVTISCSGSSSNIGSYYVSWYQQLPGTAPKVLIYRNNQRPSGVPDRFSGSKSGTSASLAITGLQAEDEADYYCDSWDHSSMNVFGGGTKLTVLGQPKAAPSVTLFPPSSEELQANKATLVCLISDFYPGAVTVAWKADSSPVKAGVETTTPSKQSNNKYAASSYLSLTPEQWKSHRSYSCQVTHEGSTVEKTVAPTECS
notes: lambda 1 light chain
B2: MAB #1 (antibody, human IgG1, lambda)
heavy: B1 heavy with V54K, H103F
light: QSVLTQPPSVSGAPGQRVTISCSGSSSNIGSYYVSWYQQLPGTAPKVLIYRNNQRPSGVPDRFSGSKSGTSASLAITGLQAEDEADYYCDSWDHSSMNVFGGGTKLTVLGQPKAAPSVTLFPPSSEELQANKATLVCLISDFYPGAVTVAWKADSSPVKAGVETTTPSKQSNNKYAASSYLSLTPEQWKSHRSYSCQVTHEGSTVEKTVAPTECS
notes: lambda 1 light chain, VH3-15 framework

Tests used:
[1] = target: T1, C5aR expressed on purified cynomolgus …; test: FACS on purified cynomolgus neutrophils, IgG titration
Experimental: Neutrophils were purified from EDTA-whole blood samples using a MACSexpress® Neutrophil Isolation Cocktail from Miltenyi Biotec. Briefly, using this kit, cells are isolated using magnetic labeling and negative magnetic separation. […] Measurements were done at the FACS Array device. FACS data were evaluated using FlowJo™, entered into GraphPad® Prism (v4.0) and fitted to the sigmoidal dose-response curve using non-linear regression to calculate the EC50.

[2] = target: T2, full-length human C3aR expressed on CHO …; test: FACS, CHO Flp-In cells expressing human C3aR, single IgG concentration
[3] = target: T7, Human FcγRIIIa (1-193)-(158F)-HIS6 (human, UniProt P08637 17-193); test: BLI (Octet), IgG captured on Protein A sensors, FcγR titrated
T7 construct: Extracellular region with C-terminal 6xHis tag; UniProt P08637 printed
Experimental: (§1) 2.0 nm of IgGs diluted in Octet assay buffer (PBS, 0.05% (v/v) Tween-20, 0.1% (w/v) BSA) were captured on Protein A sensors (FortéBIO, Pall Life Sciences). Kinetic measurements were performed using 7 concentrations of Fc gamma receptors (2n serial dilution) in assay buffer. […] All sensorgrams were fitted using Data Analysis Software 10.0, (FortéBIO, Pall Life Sciences) to determine kₒₙ and koff rate constants, which were used to calculate KD. The raw data was fitted with a 1:1 binding model, with parameter Rₘₐₓ set to local.

[4] = target: T3, Human FcγRIIB (1-202)-HIS6; test: as above
Experimental: as §1

[5] = target: T8, Human FcγRIIIa (1-193)-(158V)-HIS6 (human, UniProt P08637 17-193); test: as above
T8 construct: Extracellular region with C-terminal 6xHis tag; UniProt P08637 printed
Experimental: as §1

[6] = target: T4, Human FcγRIIa (1-209)-(131H)-HIS6; test: as above
Experimental: as §1

Human FcγRI (1-279)_HIS6 = target: T9, Human FcγRI (1-279)_HIS6 (human, UniProt P12314 16-280); test: as above
T9 construct: Extracellular region with C-terminal 6xHis tag; UniProt P12314 printed
Experimental: as §1

[7] = target: T5, Human FcγRIIa (1-209)-(131R)-HIS6; test: as above
Experimental: as §1

[8] = target: T6, full length mouse C5aR stably expressed …; test: FACS, CHO Flp-In cells expressing murine C5aR, single IgG concentration

T9 sequence (P12314 other isoform, or with tags, fused parts or gaps): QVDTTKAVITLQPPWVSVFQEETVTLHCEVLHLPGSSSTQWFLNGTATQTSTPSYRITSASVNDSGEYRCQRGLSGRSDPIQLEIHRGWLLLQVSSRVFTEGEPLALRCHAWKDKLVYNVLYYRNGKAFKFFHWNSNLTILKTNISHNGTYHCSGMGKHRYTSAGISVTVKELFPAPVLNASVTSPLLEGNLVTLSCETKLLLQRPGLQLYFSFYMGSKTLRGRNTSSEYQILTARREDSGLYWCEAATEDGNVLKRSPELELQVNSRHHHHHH
T7 sequence (P08637 other isoform, or with tags, fused parts or gaps): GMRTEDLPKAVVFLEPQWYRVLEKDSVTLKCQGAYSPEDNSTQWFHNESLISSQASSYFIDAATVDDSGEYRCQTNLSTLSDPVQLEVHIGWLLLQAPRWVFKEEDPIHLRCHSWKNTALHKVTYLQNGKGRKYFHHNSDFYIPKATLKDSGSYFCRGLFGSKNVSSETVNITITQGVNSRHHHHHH
T8 sequence (P08637 other isoform, or with tags, fused parts or gaps): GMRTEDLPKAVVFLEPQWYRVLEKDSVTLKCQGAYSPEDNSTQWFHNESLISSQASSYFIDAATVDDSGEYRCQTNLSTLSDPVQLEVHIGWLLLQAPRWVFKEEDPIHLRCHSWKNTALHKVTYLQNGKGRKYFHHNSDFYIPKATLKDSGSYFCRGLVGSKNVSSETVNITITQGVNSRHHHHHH

| Binder | EC50 [1] [nM] | binding result [2] | binding result [3] | binding result [4] | binding result [5] | binding result [6] | binding result (Human FcγRI (1-279)_HIS6) | binding result [7] | binding result [8] |
| --- | --- | --- | --- | --- | --- | --- | --- | --- | --- |
| B1 | 3.8 | no binding (tested: 300 nM) | no binding | no binding | no binding | no binding | no binding | binds | no binding (tested: 300 nM) |
| B2 | 4.5 | no binding (tested: 300 nM) | no binding | no binding | no binding | no binding | no binding | binds | no binding (tested: 300 nM) |
